Measurements as given in the supplement of paper PMC10567573.

B1: TRIM63 (parent)
chain: FRCPTCRHEVIMDRHGVYGLQRNL
B2: HESX1 (parent)
chain: SKYENYFSASERLSLKRELSWYRG

Variants of: B1
Assay: protein stability index of a GFP-peptide fusion (GPS, HEK-293T) (PSI 1-6); higher = more stable
Conditions: c terminus: a fixed tail appended
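Also: lentivirally expressed fusions sorted by FACS into six bins by GFP to DsRed ratio, PSI derived from sequencing read proportions per bin multiplied by bin number.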

Variant	protein stability index
FRCPTCRHEVIMDRHGVYGLYRNL [Q21Y]	2.17
FRCPTCRHEVIMDRHGVYGLSRNL [Q21S]	1.55
FRCPTCRHEVIMDRHGVYGLVRNL [Q21V]	1.59
FRCPTCRHEVIMDRHGVYGLWRNL [Q21W]	2.31
FRCPTCRHEVIMDRHGVYGLQRGL [N23G]	2.82
FRCPTCRHEVIMDRHGVYGLQRYL [N23Y]	1.25
FRCPTCRHEVIMDRHGVYGLQRQL [N23Q]	2.67
FRCPTCRHEVIMDRHGVYGLQRVL [N23V]	2.96
FRCPTCRHEVIMDRHGVYGLQRWL [N23W]	2.79
FRCPTCRHEVIMDRHGVYGLQRDL [N23D]	2.55
FRCPTCRHEVIMDRHGVYGLQREL [N23E]	2.05
FRCPTCRHEVIMDRHGVYGLQRIL [N23I]	1.89
FRCPTCRHEVIMDRHGVYGLQRHL [N23H]	2.5
FRCPTCRHEVIMDRHGVYGLQRRL [N23R]	2.54
FRCPTCRHEVIMDRHGVYGLQRCL [N23C]	2.2
FRCPTCRHEVIMDRHGVYGLQRSL [N23S]	2.14
FRCPTCRHEVIMDRHGVYGLQRML [N23M]	1.47
FRCPTCRHEVIMDRHGVYGLQRKL [N23K]	2.04
FRCPTCRHEVIMDRHGVYGLQRAL [N23A]	1.79
FRCPTCRHEVIMDRHGVYGLQRTL [N23T]	1.67
FRCPTCRHEVIMDRHGVYGLQRLL [N23L]	1.7

Variant	protein stability index
FRCPTCRHEVIMDRHGVYGLQRPL [N23P]	1.56
FRCPTCRHEVIMDRHGVYGLQRFL [N23F]	2.02
FRCPTCRHEVIMDRHGVYGLQFNL [R22F]	1.84
FRCPTCRHEVIMDRHGVYGLQDNL [R22D]	3.21
FRCPTCRHEVIMDRHGVYGLQHNL [R22H]	2.17
FRCPTCRHEVIMDRHGVYGLQVNL [R22V]	2.43
FRCPTCRHEVIMDRHGVYGLQINL [R22I]	3.38
FRCPTCRHEVIMDRHGVYGLQMNL [R22M]	1.45
FRCPTCRHEVIMDRHGVYGLQYNL [R22Y]	1.75
FRCPTCRHEVIMDRHGVYGLQWNL [R22W]	2.43
FRCPTCRHEVIMDRHGVYGLQQNL [R22Q]	2.24
FRCPTCRHEVIMDRHGVYGLQKNL [R22K]	2.02
FRCPTCRHEVIMDRHGVYGLQCNL [R22C]	2.29
FRCPTCRHEVIMDRHGVYGLQGNL [R22G]	1.98
FRCPTCRHEVIMDRHGVYGLQENL [R22E]	3.83
FRCPTCRHEVIMDRHGVYGLQSNL [R22S]	2.35
FRCPTCRHEVIMDRHGVYGLQTNL [R22T]	2.08
FRCPTCRHEVIMDRHGVYGLQNNL [R22N]	2.95
FRCPTCRHEVIMDRHGVYGLQLNL [R22L]	1.34
FRCPTCRHEVIMDRHGVYGLQANL [R22A]	2.29
FRCPTCRHEVIMDRHGVYGLQPNL [R22P]	2.49

Variant	protein stability index
FRCPTCRHEVIMDRHGVYGLQRNS [L24S]	2.47
FRCPTCRHEVIMDRHGVYGLQRNC [L24C]	2.75
FRCPTCRHEVIMDRHGVYGLQRNV [L24V]	2.12
FRCPTCRHEVIMDRHGVYGLQRNA [L24A]	2.34
FRCPTCRHEVIMDRHGVYGLQRNT [L24T]	2.98
FRCPTCRHEVIMDRHGVYGLQRNW [L24W]	2.4
FRCPTCRHEVIMDRHGVYGLQRNR [L24R]	1.7
FRCPTCRHEVIMDRHGVYGLQRNI [L24I]	1.69
FRCPTCRHEVIMDRHGVYGLQRNM [L24M]	2.03
FRCPTCRHEVIMDRHGVYGLQRND [L24D]	2.6
FRCPTCRHEVIMDRHGVYGLQRNK [L24K]	1.89
FRCPTCRHEVIMDRHGVYGLQRNH [L24H]	2.88
FRCPTCRHEVIMDRHGVYGLQRNG [L24G]	2.99
FRCPTCRHEVIMDRHGVYGLQRNY [L24Y]	2.7
FRCPTCRHEVIMDRHGVYGLQRNF [L24F]	1.61
FRCPTCRHEVIMDRHGVYGLQRNQ [L24Q]	2.26
FRCPTCRHEVIMDRHGVYGLQRNN [L24N]	1.85
FRCPTCRHEVIMDRHGVYGLQRNP [L24P]	2.98
FRCPTCRHEVIMDRHGVYGLQRNE [L24E]	2.46

Variants of: B2
Assay: as above
Conditions: c terminus: a fixed tail appended

Variant	protein stability index
SKYENYFHASERLSLKRELSWYRG [S8H]	2.01
SKYENYFIASERLSLKRELSWYRG [S8I]	1.94
SKYENYFAASERLSLKRELSWYRG [S8A]	1.94
SKYENYFLASERLSLKRELSWYRG [S8L]	1.55
SKYENYFFASERLSLKRELSWYRG [S8F]	2.35
SKYENYFCASERLSLKRELSWYRG [S8C]	2.03
SKYENYFNASERLSLKRELSWYRG [S8N]	1.68
SKYENYFRASERLSLKRELSWYRG [S8R]	1.44
SKYENYFVASERLSLKRELSWYRG [S8V]	1.56
SKYENYFKASERLSLKRELSWYRG [S8K]	1.62
SKYENYFMASERLSLKRELSWYRG [S8M]	1.61
SKYENYFDASERLSLKRELSWYRG [S8D]	3.25
SKYENYFQASERLSLKRELSWYRG [S8Q]	2.26
SKYENYFEASERLSLKRELSWYRG [S8E]	1.67
SKYENYFSNSERLSLKRELSWYRG [A9N]	2.86
SKYENYFSFSERLSLKRELSWYRG [A9F]	1.51
SKYENYFSSSERLSLKRELSWYRG [A9S]	1.82

Variant	protein stability index
SKYENYFSHSERLSLKRELSWYRG [A9H]	1.59
SKYENYFSTSERLSLKRELSWYRG [A9T]	2.18
SKYENYFSKSERLSLKRELSWYRG [A9K]	2.01
SKYENYFSQSERLSLKRELSWYRG [A9Q]	2.01
SKYENYFSESERLSLKRELSWYRG [A9E]	3.38
SKYENYFSPSERLSLKRELSWYRG [A9P]	1.4
SKYENYFSLSERLSLKRELSWYRG [A9L]	1.58
SKYENYFSISERLSLKRELSWYRG [A9I]	1.44
SKYENYFSDSERLSLKRELSWYRG [A9D]	2.73
SKYENYFSRSERLSLKRELSWYRG [A9R]	1.99
SKYENYFSMSERLSLKRELSWYRG [A9M]	2.15
SKYENYFSCSERLSLKRELSWYRG [A9C]	2.45
SKYENYDSASERLSLKRELSWYRG [F7D]	2.39
SKYENYYSASERLSLKRELSWYRG [F7Y]	2.63
SKYENYKSASERLSLKRELSWYRG [F7K]	1.77
SKYENYTSASERLSLKRELSWYRG [F7T]	3.02
